{"source": "patent US20040229237", "system": "mouse MIST (Mast Cell-specific Immunoreceptor Signal Transducer)", "data": [{"substance": "Lyn kinase", "values": [{"measurement": "tyrosine phosphorylation of MIST", "value": "MIST was evidently phosphorylated by Lyn kinase among tyrosine kinases present in the mast cell"}]}]}
